Changes are numbered by the printed parent chain.

In assay [1] the target is PD-L1 on cells (cancer cell lines expressing PD-L1; PD-L1+ aAPC/CHO-K1 cells) (human, UniProt Q9NZQ7 19-290). As to the kind of experiment: cell-based or functional assay.
Assay [2] has as its target T1, human PD-L1 (Acro Biosciences) (human, UniProt Q9NZQ7 19-238).
T1 construct: Bought protein, used in solution as the analyte in BLI; also called hPD-L1; CD274
Description: BLI (Octet Red 384), antibody on anti-human Fab-CH1 sensors, human PD-L1 in solution, monovalent.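 Note: after association, a 1000 s dissociation phase ran in buffer without PD-L1, on- and off-rate constants came from fitting the binding curves.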

The target of assay [3] is T1, human PD-L1 (Acro Biosciences). As to the kind of experiment: BLI (Octet Red 384), antibody on sensors, human PD-L1 in solution; head prints x10^3 S^-1, read as x10^-3 as KD = koff/kon requires.

T1 sequence (Q9NZQ7 19-238 limits assumed): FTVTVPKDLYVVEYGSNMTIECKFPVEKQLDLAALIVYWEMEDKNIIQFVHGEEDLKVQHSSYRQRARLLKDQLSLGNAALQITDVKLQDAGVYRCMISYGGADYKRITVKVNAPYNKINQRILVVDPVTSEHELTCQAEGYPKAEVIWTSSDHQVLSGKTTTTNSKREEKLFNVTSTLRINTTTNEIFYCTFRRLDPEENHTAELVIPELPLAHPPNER
Sequence of PD-L1 on cells (cancer cell lines expressing PD-L1; PD-L1+ aAPC/CHO-K1 cells) (Q9NZQ7 19-290): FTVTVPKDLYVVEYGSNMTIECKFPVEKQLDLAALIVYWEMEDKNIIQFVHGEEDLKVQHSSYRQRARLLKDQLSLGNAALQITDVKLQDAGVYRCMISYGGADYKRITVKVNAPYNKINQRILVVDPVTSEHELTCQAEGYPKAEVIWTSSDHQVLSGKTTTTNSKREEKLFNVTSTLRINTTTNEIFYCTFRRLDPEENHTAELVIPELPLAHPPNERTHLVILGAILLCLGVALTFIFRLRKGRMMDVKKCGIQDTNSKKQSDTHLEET

B1: SG-559-02 - vc-MMAE (antibody, human IgG1, kappa, V domains shown)
VH: QVQLVQSGAEVKKPGSSVKVSCKTSGDTFSTYAISWVRQAPGQGLEWMGGIIPIFGKAHYAQKFQGRVTITADESTSTAYMELSSLRSEDTAVYFCARKFHFVSGSPFGMDVWGQGTTVTVSS
VL: EIVLTQSPATLSLSPGERATLSCRASQSVSSALAWYQQKPGQAPRLLIYDASNRATGIPARFSGSGSGTDFTLTISSLEPEDFAVYYCQQRSNWPTFGQGTKVEIKR
modifications: vc-MMAE drug-linker, average DAR of 4; sites not stated in the example
For the molecule B1, in assay [1], the “x50 (50% reduction in viability, CellTiter-Glo, 96 h) on 786-O cells” value is more than 3000 ng/mL; the “x50 (50% reduction in viability, CellTiter-Glo, 96 h) on BXPC3 cells” value worked out at 19.1 ng/mL; the “x50 (50% reduction in viability, CellTiter-Glo, 96 h) on KARPAS 299 cells” value was found to be 4.44 ng/mL; the “x50 (50% reduction in viability, CellTiter-Glo, 96 h) on L540CY cells” value amounted to 26 ng/mL. The “x50 (50% reduction in viability, CellTiter-Glo, 96 h) on MDA-MB-231 cells” value in assay [1] stood at 26 ng/mL.

B2: SG-559-02 - MP-PEG8-VKG-Camptothecin (antibody, human IgG1, kappa, V domains shown)
VH: B1 VH
VL: B1 VL
modifications: MP-PEG8-VKG-Camptothecin drug-linker, average DAR of 8; sites not stated in the example
For B2, in assay [1], the “x50 (50% reduction in viability, CellTiter-Glo, 96 h) on 786-O cells” value is 283 ng/mL; the “x50 (50% reduction in viability, CellTiter-Glo, 96 h) on BXPC3 cells” value is 20.1 ng/mL; the “x50 (50% reduction in viability, CellTiter-Glo, 96 h) on KARPAS 299 cells” value came out at 6.72 ng/mL; the “x50 (50% reduction in viability, CellTiter-Glo, 96 h) on L540CY cells” value was 9.97 ng/mL. The “x50 (50% reduction in viability, CellTiter-Glo, 96 h) on MDA-MB-231 cells” value in assay [1] was 10.2 ng/mL.

B3: SG-559-03 - MP-PEG8-VKG-Camptothecin (antibody, human IgG1, kappa, V domains shown)
VH: B1 VH
VL: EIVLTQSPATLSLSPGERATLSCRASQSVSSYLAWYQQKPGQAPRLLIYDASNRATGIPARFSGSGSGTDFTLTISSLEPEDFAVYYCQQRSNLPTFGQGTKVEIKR
modifications: MP-PEG8-VKG-Camptothecin drug-linker, average DAR of 8; sites not stated in the example
With B3, in assay [1], the “x50 (50% reduction in viability, CellTiter-Glo, 96 h) on 786-O cells” value came out at 1380 ng/mL; the “x50 (50% reduction in viability, CellTiter-Glo, 96 h) on BXPC3 cells” value came out at 62.5 ng/mL; the “x50 (50% reduction in viability, CellTiter-Glo, 96 h) on KARPAS 299 cells” value amounted to 12.2 ng/mL; the “x50 (50% reduction in viability, CellTiter-Glo, 96 h) on L540CY cells” value is 13.8 ng/mL. Besides, the “x50 (50% reduction in viability, CellTiter-Glo, 96 h) on MDA-MB-231 cells” value in assay [1] was 15.1 ng/mL.

B4: SG-559-04 - MP-PEG8-VKG-Camptothecin (antibody, human IgG1, kappa, V domains shown)
VH: B1 VH with P107G
VL: not shown
modifications: MP-PEG8-VKG-Camptothecin drug-linker, average DAR of 8; sites not stated in the example
With B4, in assay [1], the “x50 (50% reduction in viability, CellTiter-Glo, 96 h) on 786-O cells” value came out at 190 ng/mL; the “x50 (50% reduction in viability, CellTiter-Glo, 96 h) on BXPC3 cells” value worked out at 23.3 ng/mL; the “x50 (50% reduction in viability, CellTiter-Glo, 96 h) on KARPAS 299 cells” value was 5.95 ng/mL; the “x50 (50% reduction in viability, CellTiter-Glo, 96 h) on L540CY cells” value came out at 10.7 ng/mL. Besides, in assay [1], the “x50 (50% reduction in viability, CellTiter-Glo, 96 h) on MDA-MB-231 cells” value was 7.89 ng/mL.

B5: SG-559-03 - vc-MMAE (antibody, human IgG1, kappa, V domains shown)
VH: B1 VH
VL: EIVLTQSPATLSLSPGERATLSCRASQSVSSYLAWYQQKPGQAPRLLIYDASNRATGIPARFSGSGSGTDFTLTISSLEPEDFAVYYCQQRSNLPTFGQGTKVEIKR
modifications: vc-MMAE drug-linker, average DAR of 4; sites not stated in the example
With B5, in assay [1], the “x50 (50% reduction in viability, CellTiter-Glo, 96 h) on 786-O cells” value is more than 3000 ng/mL; the “x50 (50% reduction in viability, CellTiter-Glo, 96 h) on BXPC3 cells” value worked out at 16.4 ng/mL; the “x50 (50% reduction in viability, CellTiter-Glo, 96 h) on KARPAS 299 cells” value stood at 4.14 ng/mL; the “x50 (50% reduction in viability, CellTiter-Glo, 96 h) on L540CY cells” value turned out to be 20.9 ng/mL. Moreover, the “x50 (50% reduction in viability, CellTiter-Glo, 96 h) on MDA-MB-231 cells” value in assay [1] was 22.9 ng/mL.

B6: SG-559-04 - vc-MMAE (antibody, human IgG1, kappa, V domains shown)
VH: B1 VH with P107G
VL: not shown
modifications: vc-MMAE drug-linker, average DAR of 4; sites not stated in the example
For the molecule B6, in assay [1], the “x50 (50% reduction in viability, CellTiter-Glo, 96 h) on 786-O cells” value was more than 3000 ng/mL; the “x50 (50% reduction in viability, CellTiter-Glo, 96 h) on BXPC3 cells” value came out at 17.3 ng/mL; the “x50 (50% reduction in viability, CellTiter-Glo, 96 h) on KARPAS 299 cells” value is 3.42 ng/mL; the “x50 (50% reduction in viability, CellTiter-Glo, 96 h) on L540CY cells” value worked out at 33.1 ng/mL. In addition, in assay [1], the “x50 (50% reduction in viability, CellTiter-Glo, 96 h) on MDA-MB-231 cells” value worked out at 24.3 ng/mL.

B7: SG-559-07 (antibody, human IgG1, kappa, V domains shown)
VH: B1 VH with K57R
VL: not shown
The Kd is a measure of binding affinity in units of concentration. Usually kon stands for a measure of how fast the partners come together. One may read the koff as the first-order rate constant of dissociation. A low value points to a long-lived complex. As to B7, in assay [2], the Kd worked out at 10 nM and the kon came out at 285000 M⁻¹ s⁻¹. In assay [3], this molecule registered a koff of 0.00284 s⁻¹.

B8: SG-559-08 (antibody, human IgG1, kappa, V domains shown)
VH: B1 VH with H59A
VL: not shown
In the case of B8, in assay [2], the dissociation constant Kd came out at 66.6 nM and the kon is 329000 M⁻¹ s⁻¹. In assay [3], this molecule had an off-rate constant (koff) of 0.0219 s⁻¹.

B9: SG-559-05 (antibody, human IgG1, kappa, V domains shown)
VH: B1 VH with F55A
VL: not shown
As for B9, in assay [2], the affinity, expressed as Kd, was 119 nM and the kon worked out at 357000 M⁻¹ s⁻¹. The molecule further displayed a koff in assay [3] of 0.0424 s⁻¹.

B10: SG-559-14 (antibody, human IgG1, kappa, V domains shown)
VH: B1 VH
VL: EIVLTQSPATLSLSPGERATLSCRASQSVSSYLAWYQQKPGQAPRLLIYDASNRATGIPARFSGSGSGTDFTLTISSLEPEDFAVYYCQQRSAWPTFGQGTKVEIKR
Turning to B10, in assay [2], the affinity, expressed as Kd, was 8.9 nM and the on-rate (kon) was determined as 399000 M⁻¹ s⁻¹. This molecule came in with a koff in assay [3] of 0.00355 s⁻¹.

B11: SG-559-15 (antibody, human IgG1, kappa, V domains shown)
VH: B1 VH
VL: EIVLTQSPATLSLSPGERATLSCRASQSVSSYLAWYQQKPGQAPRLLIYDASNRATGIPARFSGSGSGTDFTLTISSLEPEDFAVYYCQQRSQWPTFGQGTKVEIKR
In assay [2], B11 registered a Kd of 7.5 nM and a kon of 462000 M⁻¹ s⁻¹. The same molecule returned a koff in assay [3] of 0.00347 s⁻¹.

B12: SG-559-17 (antibody, human IgG1, kappa, V domains shown)
VH: B1 VH
VL: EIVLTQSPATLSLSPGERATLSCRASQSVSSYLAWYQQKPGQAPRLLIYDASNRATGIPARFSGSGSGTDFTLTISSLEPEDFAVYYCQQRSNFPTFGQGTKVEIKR
In assay [2], B12 had a Kd of 12.5 nM and a kon of 456000 M⁻¹ s⁻¹. Moreover, in assay [3], the koff was determined as 0.0057 s⁻¹.

B13: SG-559-10 (antibody, human IgG1, kappa, V domains shown)
VH: B1 VH with S106A
VL: not shown
In assay [2], B13 returned a Kd of 288 nM and a kon of 410000 M⁻¹ s⁻¹. In assay [3], this molecule had a koff of 0.118 s⁻¹.

B14: SG-559-09 (antibody, human IgG1, kappa, V domains shown)
VH: B1 VH with H59F
VL: not shown
In the case of B14, in assay [2], the affinity, expressed as Kd, was 25.5 nM and the on-rate constant (kon) is 260000 M⁻¹ s⁻¹. The molecule further displayed a koff in assay [3] of 0.00664 s⁻¹.

B15: SG-559-02 (antibody, human IgG1, kappa, V domains shown)
VH: B1 VH
VL: B1 VL
In assay [2], B15 displayed a Kd of 33.3 nM and a kon of 420000 M⁻¹ s⁻¹. In addition, in assay [3], the koff was determined as 0.014 s⁻¹.

B16: SG-559-04 (antibody, human IgG1, kappa, V domains shown)
VH: B1 VH with P107G
VL: not shown
In assay [2], B16 came in with a Kd of 25.6 nM and a kon of 390000 M⁻¹ s⁻¹. In assay [3], this molecule showed a koff of 0.01 s⁻¹.

B17: SG-559-13 (antibody, human IgG1, kappa, V domains shown)
VH: B1 VH
VL: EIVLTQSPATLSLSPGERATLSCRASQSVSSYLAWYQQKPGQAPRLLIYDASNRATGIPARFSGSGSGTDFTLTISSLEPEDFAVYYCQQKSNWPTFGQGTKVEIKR
Take B17: in assay [2], binding was put at a Kd of 4.3 nM and the on-rate constant (kon) came to 381000 M⁻¹ s⁻¹. This molecule returned an off-rate (koff) in assay [3] of 0.00162 s⁻¹.

B18: SG-559-06 (antibody, human IgG1, kappa, V domains shown)
VH: B1 VH with K57A
VL: not shown
Take B18: in assay [2], the Kd was 79.9 nM and the kon was found to be 313000 M⁻¹ s⁻¹. For the same molecule, in assay [3], the off-rate constant (koff) is 0.025 s⁻¹.

B19: SG-559-03 (antibody, human IgG1, kappa, V domains shown)
VH: B1 VH
VL: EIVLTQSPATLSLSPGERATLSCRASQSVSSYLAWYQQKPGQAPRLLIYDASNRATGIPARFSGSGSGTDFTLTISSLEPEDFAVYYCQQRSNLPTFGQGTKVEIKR
In assay [2], B19 registered a Kd of 24.5 nM and a kon of 490000 M⁻¹ s⁻¹. This molecule had a koff in assay [3] of 0.012 s⁻¹.

B20: SG-559-16 (antibody, human IgG1, kappa, V domains shown)
VH: B1 VH
VL: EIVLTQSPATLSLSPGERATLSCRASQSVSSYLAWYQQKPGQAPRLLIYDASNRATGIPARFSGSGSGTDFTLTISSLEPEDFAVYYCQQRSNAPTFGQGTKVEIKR
In assay [2], B20 showed a dissociation constant (Kd) of 24.7 nM and an association rate constant (kon) of 386000 M⁻¹ s⁻¹. Besides, the koff in assay [3] came out at 0.00953 s⁻¹.

(Values after patent US20210101982A1 (Seagen, published 2021).)
